From patent US6013288A, “Process for manufacturing beer” (Suntory Limited, priority 1995, dated 2000) come the findings set out here.

The assay can be described thus: Decomposition of purine nucleosides in wort by nucleoside phosphorylase. It is filed as biochemical. The conditions noted are these: 7 units/ml, 3 hours at 30° C., wort extract concentration 12.5%. The protocol:
Nucleoside phosphorylase derived from calf spleen (Boehringer) was added to wort having an extract concentration of 12.5% to a concentration of 7 units/ml, and allowed to react for 3 hours at 30° C. The amount of purine compounds in the wort to which enzyme was added and a wort held for 3 hours at 30° C. without adding enzyme as the control were measured using the method described in Experiment 1.

B1: nucleoside phosphorylase derived from calf spleen: Nucleoside phosphorylase derived from calf spleen (Boehringer), EC 2.4.2.1 (protein, UniProt P55859 1-289, looked up)
Purine nucleoside …: MANGYTYEDYQDTAKWLLSHTEQRPQVAVICGSGLGGLVNKLTQAQTFDYSEIPNFPESTVPGHAGRLVFGILNGRACVMMQGRFHMYEGYPFWKVTFPVRVFRLLGVETLVVTNAAGGLNPNFEVGDIMLIRDHINLPGFSGENPLRGPNEERFGVRFPAMSDAYDRDMRQKAHSTWKQMGEQRELQEGTYVMLGGPNFETVAECRLLRNLGADAVGMSTVPEVIVARHCGLRVFGFSLITNKVIMDYESQGKANHEEVLEAGKQAAQKLEQFVSLLMASIPVSGHTG
With B1, the “decomposition ratio of each purine nucleoside” value was “roughly 60%”.
